Test [1] has as its target T1, extracellular domain of activin receptor type IIB (ActRIIBecd), biotinylated (Homo sapiens (Human), UniProt Q13705 27-117, amino-biotinylated with amine-PEG3-Biotin).
T1 construct: immobilised on a streptavidin-coated sensor chip; also called biotinylated ActRIIBecd; extracellular domain of ActRIIB
T1 sequence: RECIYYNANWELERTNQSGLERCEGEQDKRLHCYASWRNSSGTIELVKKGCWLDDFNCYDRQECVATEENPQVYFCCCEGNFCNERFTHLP
In words: BIAcore SPR as Example 5 (method not restated); SD ±1.13 nM. The method, then:
(§1) Biosensor experiments. In one embodiment, experiments were performed on a BIAcore™ T100/T200 instrument (Pharmacia Biosensor AB) in the multichannel mode (serial flow path involving flow cells 1+2+3+4). Flow rate was 10 μl/min; temperature was 25° C.; and data were recorded at 2.5 points/s. All four segments of a sensor chip CMS were coated with streptavidin (Sigma) to a density of 2000 pg/mm² (2000 resonance units) by the aminocoupling procedure. ActRIIBecd (10 mg) and amine-PEG3-Biotin (10 mg, Pierce, Rockford, Ill.) were dissolved in 200 μl H₂O and 10 mg NaCNBH₃ was added to prepare biotinylated ActRIIBecd. The reaction mixture was heated at 70° C. for 24 h, after that a further 10 mg NaCNBH₃ was added and the reaction was heated at 70° C. for another 24 h. After cooling to room temperature, the mixture was desalted with the spin column (3,000 molecular weight cut off (MWCO)). […] Sensograms were recorded during flow of the analyte (the ActRIIBecd-associated polypeptides (i.e., domains) as previously described) first through flow cell 1 (control) then through flow cell 2 (biotinylated ActRIIBecd). […] The sensograms obtained at 1.11, 3.33, 10, 30, and 90 nM analyte were evaluated for equilibrium binding, association rate, and dissociation rate by using the programs supplied with the instrument (BIA evaluation 2.1; Software Handbook. 1995; Pharmacia Biosensor AB).
In general terms: Surface plasmon resonance follows binding to a sensor surface in real time, without labels.

The target of test [2] is T1, extracellular domain of activin …. In words: Mean KD column of Table 5; method not restated (BIAcore as Example 5); species also listed in Table 4. The procedure, abridged: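 On a chip first coated with amine-coupled streptavidin (about 2000 RU), the biotin-conjugated receptor ectodomain was bound to 50-250 RU. Polypeptide solutions (1.11-90 nM, glycine buffer pH 4.5) passed over it at 10 μl/min and 25° C, and the resulting traces gave association rate, dissociation rate and equilibrium binding.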

The target is the same in test [3]. In words: BIAcore SPR as Example 5 (method not restated); SD ±1.76 nM. Here is the method: as §1
Test [4] has the same target. In words: BIAcore SPR as Example 5 (method not restated); SD ±1.60 nM. Here is the method:
as §1

For test [5] the target is unchanged. In words: BIAcore SPR as Example 5 (method not restated); SD ±1.05 nM. The method, then: as §1
The target is the same in test [6]. In words: BIAcore SPR as Example 5 (method not restated); SD ±1.38 nM. Here is the method: as §1
For test [7] the target is unchanged. In words: BIAcore SPR as Example 5 (method not restated); SD ±2.35 nM. The method, then:
as §1

The target is the same in test [8]. In words: BIAcore SPR, biotinylated ActRIIBecd on chip; SD ±12.79 nM. The method, then:
as §1

For test [9] the target is unchanged. In words: BIAcore SPR as Example 5 (method not restated); SD ±1.32 nM. The method, then:
as §1

For test [10] the target is unchanged. In words: BIAcore SPR as Example 5 (method not restated); SD ±2.08 nM. Here is the method:
as §1

The target is the same in test [11]. In words: BIAcore SPR as Example 5 (method not restated); SD ±2.71 nM. The method, then: as §1
For test [12] the target is unchanged. In words: BIAcore SPR as Example 5 (method not restated); SD ±0.75 nM. The method, then: as §1
Test [13] has the same target. In words: BIAcore SPR as Example 5 (method not restated); SD ±0.96 nM. The method, then:
as §1

For test [14] the target is unchanged. In words: BIAcore SPR as Example 5 (method not restated); SD ±0.67 nM. The method, then: as §1
For test [15] the target is unchanged. In words: BIAcore SPR as Example 5 (method not restated); SD ±3.57 nM. Here is the method: as §1
Test [16] has the same target. In words: BIAcore SPR as Example 5 (method not restated); SD ±2.66 nM. Here is the method:
as §1

In general, Kd refers to a measure of binding affinity in units of concentration. Read a low Kd as tighter binding.

B1: SEQ ID NO: 284, cysteine pairs C59-C59^b, C8-C41^a, C9-C43^a, C88-C92^a (designed binder)
chain: NSKIPKACCVPTELSAISMLYLDENEKVVLKNYQDMVVEGCGCRAQAKHKQRKRLKSSCKRHPLYVDFSDVGWNDWIVAPPGYHAFYCHGECPFPLADHLNSTNHAIVQTLVNSV
modifications: disulfides C59-C59 (inter), C8-C41 (intra), C9-C43 (intra), C88-C92 (intra)
notes: homodimer by intermolecular disulfide
Consider B1, for which the dissociation constant Kd in [1] and in test [2] was 4.89 nM each time.

B2: SEQ ID NO: 284, cysteine pairs C59-C59^b, C8-C41^b, C9-C43^b, C88-C92^a (designed binder)
chain: NSKIPKACCVPTELSAISMLYLDENEKVVLKNYQDMVVEGCGCRAQAKHKQRKRLKSSCKRHPLYVDFSDVGWNDWIVAPPGYHAFYCHGECPFPLADHLNSTNHAIVQTLVNSV
modifications: disulfides C59-C59 (inter), C8-C41 (inter), C9-C43 (inter), C88-C92 (intra)
notes: as for B1
For B2, the Kd in test [3] and in test [2] was 5.79 nM throughout.

B3: SEQ ID NO: 276, cysteine pairs C67-C71^a, C8-C41^a, C9-C43^a, C109-C109^b (designed binder)
chain: NSKIPKACCVPTELSAISMLYLDENEKVVLKNYQDMVVEGCGCRVDFSDVGWNDWIVAPPGYHAFYCHGECPFPLADHLNSTNHAIVQTLVNSVAQAKHKQRKRLKSSCKRHPLY
modifications: disulfides C67-C71 (intra), C8-C41 (intra), C9-C43 (intra), C109-C109 (inter)
notes: as for B1
As to B3, the Kd in test [2] and in test [4] was 5.71 nM throughout.

B4: SEQ ID NO: 276, cysteine pairs C67-C71^a, C8-C43^a, C9-C41^a, C109-C109^b (designed binder)
chain: NSKIPKACCVPTELSAISMLYLDENEKVVLKNYQDMVVEGCGCRVDFSDVGWNDWIVAPPGYHAFYCHGECPFPLADHLNSTNHAIVQTLVNSVAQAKHKQRKRLKSSCKRHPLY
modifications: disulfides C67-C71 (intra), C8-C43 (intra), C9-C41 (intra), C109-C109 (inter)
notes: as for B1
As for B4, the dissociation constant Kd in test [5] and in test [2] was 7.66 nM each time.

B5: SEQ ID NO: 276, cysteine pairs C67-C71^a, C8-C43^b, C9-C41^b, C109-C109^b (designed binder)
chain: NSKIPKACCVPTELSAISMLYLDENEKVVLKNYQDMVVEGCGCRVDFSDVGWNDWIVAPPGYHAFYCHGECPFPLADHLNSTNHAIVQTLVNSVAQAKHKQRKRLKSSCKRHPLY
modifications: disulfides C67-C71 (intra), C8-C43 (inter), C9-C41 (inter), C109-C109 (inter)
notes: as for B1
For B5, the dissociation constant (Kd) in [6] and in test [2] was 6.31 nM throughout.

B6: SEQ ID NO: 276, cysteine pairs C8-C9^a (designed binder)
chain: NSKIPKACCVPTELSAISMLYLDENEKVVLKNYQDMVVEGCGCRVDFSDVGWNDWIVAPPGYHAFYCHGECPFPLADHLNSTNHAIVQTLVNSVAQAKHKQRKRLKSSCKRHPLY
modifications: disulfides C8-C9 (intra)
Take B6: the Kd in test [7] and in [2] was 27.9 nM each time. For the molecule VDFKDVGWNDHAVAPPGYHAFYCHGECPFPLADHLNSDNHAIVQTKVNSV [Clone No. 14 domain (ActRIIBecd-associated polypeptide)], the Kd in [8] is 38.3 nM.

B7: SEQ ID NO: 268, cysteine pairs C23-C27^a, C65-C65^b, C79-C112^a, C80-C114^a (designed binder)
chain: VDFSDVGWNDWIVAPPGYHAFYCHGECPFPLADHLNSTNHAIVQTLVNSVAQAKHKQRKRLKSSCKRHPLYNSKIPKACCVPTELSAISMLYLDENEKVVLKNYQDMVVEGCGCR
modifications: disulfides C23-C27 (intra), C65-C65 (inter), C79-C112 (intra), C80-C114 (intra)
notes: as for B1
Take B7: the Kd in test [2] and in test [9] was 7.21 nM each time.

B8: SEQ ID NO: 268, cysteine pairs C23-C27^a, C65-C65^b, C79-C114^a, C80-C112^a (designed binder)
chain: VDFSDVGWNDWIVAPPGYHAFYCHGECPFPLADHLNSTNHAIVQTLVNSVAQAKHKQRKRLKSSCKRHPLYNSKIPKACCVPTELSAISMLYLDENEKVVLKNYQDMVVEGCGCR
modifications: disulfides C23-C27 (intra), C65-C65 (inter), C79-C114 (intra), C80-C112 (intra)
notes: as for B1
B8: the Kd in [10] and in test [2] was 8.74 nM throughout.

B9: SEQ ID NO: 268, cysteine pairs C23-C79^a (designed binder)
chain: VDFSDVGWNDWIVAPPGYHAFYCHGECPFPLADHLNSTNHAIVQTLVNSVAQAKHKQRKRLKSSCKRHPLYNSKIPKACCVPTELSAISMLYLDENEKVVLKNYQDMVVEGCGCR
modifications: disulfides C23-C79 (intra)
In the case of B9, the Kd in test [11] and in test [2] was 29.6 nM throughout.

B10: SEQ ID NO: 268, cysteine pairs C23-C27^a, C65-C65^b, C79-C112^b, C80-C114^b (designed binder)
chain: VDFSDVGWNDWIVAPPGYHAFYCHGECPFPLADHLNSTNHAIVQTLVNSVAQAKHKQRKRLKSSCKRHPLYNSKIPKACCVPTELSAISMLYLDENEKVVLKNYQDMVVEGCGCR
modifications: disulfides C23-C27 (intra), C65-C65 (inter), C79-C112 (inter), C80-C114 (inter)
notes: as for B1
As to B10, the Kd in [12] and in test [2] was 7.96 nM throughout.

B11: SEQ ID NO: 260, cysteine pairs C80-C114^b, C79-C112^b, C44-C48^a (designed binder)
chain: AQAKHKQRKRLKSSCKRHPLYVDFSDVGWNDWIVAPPGYHAFYCHGECPFPLADHLNSTNHAIVQTLVNSVNSKIPKACCVPTELSAISMLYLDENEKVVLKNYQDMVVEGCGCR
modifications: disulfides C80-C114 (inter), C79-C112 (inter), C44-C48 (intra)
notes: as for B1
Consider B11, for which the Kd in [13] and in [2] was 6.89 nM in each case.

B12: SEQ ID NO: 292, cysteine pairs C15-C80^a, C44-C112^a, C48-C114^a, C79-C79^b (designed binder)
chain: GQAKRKGYKRLKSSCKRHPLYVDFKDVGWNDHAVAPPGYHAFYCHGECPFPLADHLNSDNHAIVQTKVNSVNSKDPKACCVPTELSAPSPLYLDENEKPVLKNYQDMVVHGCGCR
modifications: disulfides C15-C80 (intra), C44-C112 (intra), C48-C114 (intra), C79-C79 (inter)
notes: as for B1
Regarding B12, the Kd in test [14] and in test [2] was 4.77 nM throughout.

B13: SEQ ID NO: 292, cysteine pairs C15-C15^b, C79-C114^a, C80-C112^a, C44-C48^a (designed binder)
chain: GQAKRKGYKRLKSSCKRHPLYVDFKDVGWNDHAVAPPGYHAFYCHGECPFPLADHLNSDNHAIVQTKVNSVNSKDPKACCVPTELSAPSPLYLDENEKPVLKNYQDMVVHGCGCR
modifications: disulfides C15-C15 (inter), C79-C114 (intra), C80-C112 (intra), C44-C48 (intra)
notes: as for B1
As to B13, the dissociation constant Kd in [15] and in [2] was 5.81 nM in each case.

B14: SEQ ID NO: 292, cysteine pairs C79-C80^a (designed binder)
chain: GQAKRKGYKRLKSSCKRHPLYVDFKDVGWNDHAVAPPGYHAFYCHGECPFPLADHLNSDNHAIVQTKVNSVNSKDPKACCVPTELSAPSPLYLDENEKPVLKNYQDMVVHGCGCR
modifications: disulfides C79-C80 (intra)
Regarding B14, the Kd in test [16] and in test [2] was 29 nM throughout.

Values taken from patent US20190071480A1 (Biogen, published 2019).
